From article PMC6985046

Key:
[1] = target: PF-06438179/GP1111 Fab fragment (mouse/human chimeric); assay: AUC
[2] = target: Remicade Fab fragment (sourced from the European Union market) (mouse/human chimeric); assay: AUC

stoichiometry N [1] | Kd [2] [µM] | Substance
2 | – | PF-06438179/GP1111 Fab fragment
– | 23 | Remicade Fab fragment (sourced from the European Union market)
